What was measured:
Details in all cases: both partners purified
[1] = molecular target: T1, biotinylated HLA-DM ectodomain (human, UniProt P28067 27-233; P28068 19-218, biotin on the C-terminal avitag (BirA); which chain carries the avitag is not stated); assay: SPR; BIAcore, 25 C, pH 6.3 (running buffer pH 6.26); biotinylated DM on a streptavidin chip, untreated DOv injected; 80 mM citrate-phosphate, 150 mM NaCl, 0.06% BSA, 0.05% P20; apparent KD from fitted equilibrium RU
T1 construct: HLA-DM alpha chain, human, ectodomain; HLA-DM beta chain, human, ectodomain; Alpha/beta heterodimer; The supplement says only that avitag and flag-tag stand at a C-terminus; they are written on the beta chain for want of a statement; A KT3-tag at the C-terminus of recombinant DM beta is named in the western blot methods (D1:p7); also called bio-DM; sDM-Avi
T1 sequence (P28067 27-233, chain 1 of 2): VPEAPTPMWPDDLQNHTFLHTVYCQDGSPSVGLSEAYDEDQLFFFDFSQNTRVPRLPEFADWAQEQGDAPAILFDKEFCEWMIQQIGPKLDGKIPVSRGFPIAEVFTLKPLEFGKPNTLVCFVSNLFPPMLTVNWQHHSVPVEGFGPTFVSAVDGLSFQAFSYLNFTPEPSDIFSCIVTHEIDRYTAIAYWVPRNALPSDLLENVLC
T1 sequence (P28068 19-218, chain 2 of 2): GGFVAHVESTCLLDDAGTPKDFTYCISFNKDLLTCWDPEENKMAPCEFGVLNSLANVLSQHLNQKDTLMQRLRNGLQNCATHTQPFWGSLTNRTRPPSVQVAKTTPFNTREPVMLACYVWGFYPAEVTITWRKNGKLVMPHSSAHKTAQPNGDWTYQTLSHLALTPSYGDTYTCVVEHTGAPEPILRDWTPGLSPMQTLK

[2] = molecular target: T1, biotinylated HLA-DM ectodomain; assay: SPR; BIAcore, 37 C, pH 6.3; biotinylated DM on a streptavidin chip, DOv injected; 80 mM citrate-phosphate, 150 mM NaCl, 0.06% BSA, 0.05% P20; apparent KD from fitted equilibrium RU
[3] = molecular target: T1, biotinylated HLA-DM ectodomain; assay: SPR; BIAcore, 25 C, pH 4.85; biotinylated DM on a streptavidin chip, DOv injected; 80 mM citrate-phosphate, 150 mM NaCl, 0.06% BSA, 0.05% P20; apparent KD from fitted equilibrium RU
[4] = molecular target: T1, biotinylated HLA-DM ectodomain; assay: SPR; BIAcore, 25 C, pH 6.3; biotinylated DM on a streptavidin chip; analyte: intact DOv SEC-purified after a pH 4.6 pulse (37 C, 8 min); apparent KD from fitted equilibrium RU
[5] = molecular target: T1, biotinylated HLA-DM ectodomain; assay: SPR; BIAcore, 25 C, pH 5.5 (running buffer pH 5.49); biotinylated DM on a streptavidin chip, DOv injected; 80 mM citrate-phosphate, 150 mM NaCl, 0.06% BSA, 0.05% P20; apparent KD from fitted equilibrium RU
[6] = molecular target: T1, biotinylated HLA-DM ectodomain; assay: SPR; BIAcore, 25 C, pH 7.2 (running buffer pH 7.16); biotinylated DM (120-130 RU) on a streptavidin chip, DOv injected; 80 mM citrate-phosphate, 150 mM NaCl, 0.06% BSA, 0.05% P20; apparent KD from fitted equilibrium RU (slow dissociation model)
[7] = molecular target: T1, biotinylated HLA-DM ectodomain; assay: SPR; BIAcore, 37 C, pH 4.85; biotinylated DM on a streptavidin chip, DOv injected; 80 mM citrate-phosphate, 150 mM NaCl, 0.06% BSA, 0.05% P20; apparent KD from fitted equilibrium RU
[8] = molecular target: T2, soluble HLA-DM ectodomain (human, UniProt P28067 27-233; P28068 19-218); assay: BLI; Octet QK, 25 C as the table's head says, pH 6.3 (50 mM MES, 150 mM NaCl, 0.01% BSA, 0.002% Tween 20); biotinylated DOv on streptavidin biosensors, soluble DM 6.25-1600 nM; apparent KD from fitted equilibrium wavelength shifts
T2 construct: HLA-DM alpha chain, human, ectodomain; HLA-DM beta chain, human, ectodomain; The analyte of the BLI experiments, not biotinylated; also called sDM; soluble DM
T2 sequence (P28067 27-233, chain 1 of 2): as the sequence (P28067 27-233, chain 1 of 2) above
T2 sequence (P28068 19-218, chain 2 of 2): as the sequence (P28068 19-218, chain 2 of 2) above

[9] = molecular target: T2, soluble HLA-DM ectodomain; assay: BLI; Octet QK, 25 C as the table's head says, table row pH 7.2 (kinetic buffer 50 mM HEPES pH 7.4, 150 mM NaCl, 0.01% BSA, 0.002% Tween 20); biotinylated DOv on streptavidin biosensors, soluble DM 6.25-1600 nM; apparent KD from fitted equilibrium wavelength shifts
[10] = molecular target: T2, soluble HLA-DM ectodomain; assay: BLI; Octet QK, 25 C as the table's head says, table row pH 4.85 (kinetic buffer 50 mM acetate pH 4.7, 150 mM NaCl, 0.01% BSA, 0.002% Tween 20); biotinylated DOv on streptavidin biosensors, soluble DM 6.25-1600 nM; apparent KD from fitted equilibrium wavelength shifts
[11] = molecular target: T2, soluble HLA-DM ectodomain; assay: BLI; Octet QK, 25 C as the table's head says, pH 5.5 (50 mM citrate, 150 mM NaCl, 0.01% BSA, 0.002% Tween 20); biotinylated DOv on streptavidin biosensors, soluble DM 6.25-1600 nM; apparent KD from fitted equilibrium wavelength shifts
[12] = molecular target: T3, HLA-DM ectodomain of the DM-DOwt complex (human, UniProt P28067 27-233; P28068 19-218); assay: SEC; DM-DOwt ectodomains incubated at pH 4.6, 5.4 or 6.3 for the indicated times (4 h, 24 h) or not treated, separated by size exclusion chromatography; fractions western blotted with DO- or DM-specific antibodies
T3 construct: HLA-DM alpha chain, ectodomain; HLA-DM beta chain, ectodomain; For BLI the DM-DOwt complex was biotinylated; also called DM (in DM-DOwt); DM-DO ectodomains; source: recombinant, purified in complex with DOwt (double SEC-purified DM-DO ectodomains)
T3 sequence (P28067 27-233, chain 1 of 2): as the sequence (P28067 27-233, chain 1 of 2) above
T3 sequence (P28068 19-218, chain 2 of 2): as the sequence (P28068 19-218, chain 2 of 2) above

[13] = molecular target: T4, biotinylated DM (soluble HLA-DM, SPR ligand) (human, UniProt P28067 27-233; P28068 19-218, biotin (chain and site not stated) | biotin (chain and site not stated)); assay: SPR; BIAcore; 120–130 RU biotinylated DM on a streptavidin chip, DOv injected (Kinject, 30 μl/min, 5 min); 80 mM citrate-phosphate, 150 mM NaCl, 0.06% BSA, 0.05% P20, pH 4.85, 5.49, 6.26, 7.16; 25 °C or 37 °C; single cycle mode at pH 4.85 with >4 h dissociation; apparent constants (slow dissociation model)
T4 construct: HLA-DM alpha chain, ectodomain; HLA-DM beta chain, ectodomain; captured on a streptavidin chip; also called immobilized DM; source: recombinant, purified
T4 sequence (P28067 27-233, chain 1 of 2): as the sequence (P28067 27-233, chain 1 of 2) above
T4 sequence (P28068 19-218, chain 2 of 2): as the sequence (P28068 19-218, chain 2 of 2) above

B1: stabilized HLA-DO variant ectodomain (alpha P11A) (domain or fragment, human)
MHC II alpha: TKADHMGSYGAAFYQSYGASGQFTHEFDEEQLFSVDLKKSEAVWRLPEFGDFARFDPQGGLAGIAAIKAHLDILVERSNRSRAINVPPRVTVLPKSRVELGQPNILICIVDNIFPPVINITWLRNGQTVTEGVAQTSFYSQPDHLFRKFHYLPFVPSAEDVYDCQVEHWGLDAPLLRHWELQVPIPPPDAME
MHC II beta: TDSPEDFVIQAKADCYFTNGTEKVQFVVRFIFNLEEYVRFDSDVGMFVALTKLGQPDAEQWNSRLDLLERSRQAVDGVCRHNYRLGAPFTVGRKVQPEVTVYPERTPLLHQHNLLHCSVTGFYPGDIKIKWFLNGQEERAGVMSTGPIRNGDWTFQTVVMLEMTPELGHVYTCLVDHSSLLSPVSVEWRAQSEYSWRK
notes: HLA-DO alpha chain, human, ectodomain; HLA-DO beta chain, human, ectodomain; Alpha/beta heterodimer, not biotinylated when used as SPR analyte; The avitag is said to stand at the C-terminus of recombinant DO beta (D1:p7); The 'sz' of the cell line's name may mean leucine zippers; In one experiment the intact fraction after a pH 4.6 pulse (37 C, 8 min, SEC 12-13 ml) was used; also called szDOv-Avi
Kd [1]: 14.1 nM | Kd [2]: 12.6 nM | Kd [3]: 148 nM | Kd [4]: 27.5 nM | Kd [5]: 21.9 nM | Kd [6]: 9.4 nM | Kd [7]: 240 nM

B2: biotinylated stabilized HLA-DO variant ectodomain (alpha P11A) (domain or fragment, human)
MHC II alpha: TKADHMGSYGAAFYQSYGASGQFTHEFDEEQLFSVDLKKSEAVWRLPEFGDFARFDPQGGLAGIAAIKAHLDILVERSNRSRAINVPPRVTVLPKSRVELGQPNILICIVDNIFPPVINITWLRNGQTVTEGVAQTSFYSQPDHLFRKFHYLPFVPSAEDVYDCQVEHWGLDAPLLRHWELQVPIPPPDAME
MHC II beta: TDSPEDFVIQAKADCYFTNGTEKVQFVVRFIFNLEEYVRFDSDVGMFVALTKLGQPDAEQWNSRLDLLERSRQAVDGVCRHNYRLGAPFTVGRKVQPEVTVYPERTPLLHQHNLLHCSVTGFYPGDIKIKWFLNGQEERAGVMSTGPIRNGDWTFQTVVMLEMTPELGHVYTCLVDHSSLLSPVSVEWRAQSEYSWRK
modifications: biotin on the C-terminal avitag (BirA)
notes: HLA-DO alpha chain, human, ectodomain; HLA-DO beta chain, human, ectodomain; Same construct as Dm2, biotinylated and held on streptavidin biosensors in BLI; also called bio-DOv; biotinylated DOv
Kd [8]: 17 nM | Kd [9]: 11.3 nM | Kd [10]: 233 nM | Kd [11]: 26.9 nM

B3: wild type HLA-DO ectodomain (DOwt) of the DM-DOwt complex (complex, human)
MHC II alpha: TKADHMGSYGPAFYQSYGASGQFTHEFDEEQLFSVDLKKSEAVWRLPEFGDFARFDPQGGLAGIAAIKAHLDILVERSNRSRAINVPPRVTVLPKSRVELGQPNILICIVDNIFPPVINITWLRNGQTVTEGVAQTSFYSQPDHLFRKFHYLPFVPSAEDVYDCQVEHWGLDAPLLRHWELQVPIPPPDAME
MHC II beta: TDSPEDFVIQAKADCYFTNGTEKVQFVVRFIFNLEEYVRFDSDVGMFVALTKLGQPDAEQWNSRLDLLERSRQAVDGVCRHNYRLGAPFTVGRKVQPEVTVYPERTPLLHQHNLLHCSVTGFYPGDIKIKWFLNGQEERAGVMSTGPIRNGDWTFQTVVMLEMTPELGHVYTCLVDHSSLLSPVSVEWRAQSEYSWRK
notes: HLA-DO alpha chain, ectodomain; HLA-DO beta chain, ectodomain; For BLI the DM-DOwt complex was biotinylated; also called wild type DO; source: recombinant, purified in complex with DM (double SEC-purified DM-DO ectodomains)
binding result [12]: binds

B4: stabilized HLA-DO variant (DOv), ectodomain with αP11A (complex, human)
MHC II alpha: TKADHMGSYGAAFYQSYGASGQFTHEFDEEQLFSVDLKKSEAVWRLPEFGDFARFDPQGGLAGIAAIKAHLDILVERSNRSRAINVPPRVTVLPKSRVELGQPNILICIVDNIFPPVINITWLRNGQTVTEGVAQTSFYSQPDHLFRKFHYLPFVPSAEDVYDCQVEHWGLDAPLLRHWELQVPIPPPDAME
MHC II beta: TDSPEDFVIQAKADCYFTNGTEKVQFVVRFIFNLEEYVRFDSDVGMFVALTKLGQPDAEQWNSRLDLLERSRQAVDGVCRHNYRLGAPFTVGRKVQPEVTVYPERTPLLHQHNLLHCSVTGFYPGDIKIKWFLNGQEERAGVMSTGPIRNGDWTFQTVVMLEMTPELGHVYTCLVDHSSLLSPVSVEWRAQSEYSWRK
notes: HLA-DO alpha chain, ectodomain; HLA-DO beta chain, ectodomain; Also used after pH 4.6 pulses and SEC isolation of the intact portion (assay a3); also called soluble DOv; source: recombinant, expressed and purified alone
fold increase of KD,app from pH 7.2 to pH 4.7 [13]: > 10 fold
